Assay results reported in publication PMC4164784, “4E-BPs require non-canonical 4E-binding motifs and a lateral surface of eIF4E to repress translation” (Nature Communications, 2014).
No end group written: not given here.

Assays:
[1] = molecular target: T1, Dm eIF4E II-AA mutant (I96A, I112A; residues 69–248) (Drosophila melanogaster, UniProt P48598, I107A/I123A); experiment: ITC, binding to eIF4E II-AA mutant (residues 69–248); conditions: for affinity for eIF4E II-AA mutant relative to WT (in words): bipartite peptides (C+NC) or eIF4G, lateral-surface mutant vs WT
T1 construct: The solution of eIF4E (residues 69–248, WT or mutant: 1–20 μM) in the calorimetric cell; His6 (N, cleaved yes); made in house; host or cells: E. coli BL21 Star (DE3)
T1 sequence (P48598 80-259 I107A/I123A): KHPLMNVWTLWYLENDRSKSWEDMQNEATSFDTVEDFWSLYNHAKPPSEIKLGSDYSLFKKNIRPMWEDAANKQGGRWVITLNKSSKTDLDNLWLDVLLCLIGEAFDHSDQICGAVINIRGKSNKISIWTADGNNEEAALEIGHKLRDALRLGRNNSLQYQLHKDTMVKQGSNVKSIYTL
Procedure: Unless indicated otherwise, all the proteins were expressed in E. coli BL21 Star (DE3) cells (Invitrogen) that were grown in LB medium overnight at 20 °C. The lysis buffers were supplemented with DNaseI (5 μg ml^−1), lysozyme (1 mg ml^−1) and protease inhibitor cocktail (Roche). The truncated His6-eIF4E (residues 69–248) that was used in the ITC experiments and in Figs 2c and 5b was purified in lysis buffer containing 50 mM HEPES (pH 7.2), 300 mM NaCl, 20 mM imidazole and 2 mM β-mercaptoethanol using Ni^2+-affinity chromatography (HisTrap HP 5 ml, GE Healthcare) and eluted with a gradient of 20–500 mM imidazole. After the cleavage of the His6-tag with HRV3C protease (homemade), the protein was further purified using a heparin column (HiTrap Heparin HP 5 ml, GE Healthcare), followed by size exclusion chromatography (Superdex 75 16/60, GE Healthcare) in 20 mM Na-phosphate (pH 7.0), 300 mM NaCl and 2 mM dithiothreitol (DTT).
For the ITC measurements and the competition assays shown in Figs 4 and 5d–g, the 4E-BP peptides corresponding to the canonical (C) motifs, the combined (C+NC) motifs or L+NC were expressed with an HRV3C cleavable N-terminal MBP-tag and a non-cleavable C-terminal GB1 domain. The cells were lysed by sonication in lysis buffer containing 50 mM HEPES (pH 7.2), 300 mM NaCl and 2 mM DTT. The proteins were purified from the cleared lysates using amylose resin (New England Biolabs) followed by the cleavage of the MBP tag with HRV3C protease overnight at 4 °C. The proteins were further purified by size exclusion chromatography (Superdex 75 16/60, GE Healthcare) in 20 mM Na-phosphate (pH 7.0), 300 mM NaCl and 2 mM DTT. For the eIF4G fragment (residues 578–650) the MBP was removed after cleavage with TEV protease through an additional anion exchange chromatography (HiTrap Q HP 5 ml, GE Healthcare) before the final gel filtration.
The ITC experiments were performed using a VP-ITC microcalorimeter (MicroCal) at 20 °C. The solution of eIF4E (residues 69–248, WT or mutant: 1–20 μM) in the calorimetric cell was titrated with tenfold concentrated solutions of GB1-stabilized peptides corresponding to 4E-BPs C+NC (10 μM), C (50 μM), L+NC (100 μM CUP, 200 μM Thor and 4E-T) or eIF4G (residues 578–650, 20 μM) that were dissolved in the same buffer (20 mM Na-phosphate (pH 7.0) and 150 mM NaCl). The titration experiments consisted of an initial injection of 2 μl followed by 28 injections of 10 μl at an interval of 240 s. Each binding experiment was repeated twice. The thermodynamic parameters were estimated using a one-site binding model (Origin version 7.0), whereby the datapoint of the first injection was removed for the analysis.
mutant (residues 69-248) and CUP (a), Thor (b), 4E-T (c) and eIF4G (d) peptides. The
measurements were performed as described in Supplementary Fig. 3. The solutions
contained the 4E-BP C+NC peptides (10 µM) and 20 µM for the eIF4G peptide. The eIF4E
II-AA mutant concentration in the calorimetric cell was 5 µM.

[2] = molecular target: T2, eIF4E–eIF4G complex (eIF4E WT; eIF4G residues 578–650) (Drosophila melanogaster, UniProt P48598); experiment: Competition assay, displacement of GST-eIF4G from preassembled eIF4E (WT)–eIF4G complexes; format: biochemical; conditions: for displacement of eIF4G from eIF4E WT–eIF4G complex (in words): 2–20 μM GB1-fused competitor, Strep-Tactin pull down; for competition with eIF4G for eIF4E WT (in words): Fig. 5a,c, fivefold molar excess of MBP-tagged competitor, 30 min at 4 °C, m7GTP or Strep-Tactin pull down
T2 construct: full-length eIF4E (WT or the II-AA mutant) containing an N-terminal SNH-tag was coexpressed; made in house; host or cells: E. coli BL21 Star (DE3), coexpression
T2 sequence (P48598 1-248 isoform P48598-2): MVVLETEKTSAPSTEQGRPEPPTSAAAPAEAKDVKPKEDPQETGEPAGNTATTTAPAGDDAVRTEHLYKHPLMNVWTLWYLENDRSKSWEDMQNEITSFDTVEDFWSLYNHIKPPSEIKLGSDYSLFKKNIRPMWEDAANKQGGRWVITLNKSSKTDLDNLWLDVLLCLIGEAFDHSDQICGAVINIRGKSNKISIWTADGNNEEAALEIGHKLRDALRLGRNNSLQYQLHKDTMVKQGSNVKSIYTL
Procedure: For the competition assays shown in Figs 5a,c and 6a,b, complexes containing SHN- or MBP-tagged eIF4E (WT or II-AA mutant) bound to GST-eIF4G (residues 578–650), GST-Thor (full length), GST-4E-T (residues 1–58) or GST-CUP (311–440) were obtained by coexpressing the corresponding proteins in E. coli BL21 (DE3) STAR cells (30 ml culture). The cells were resuspended in lysis buffer (5 ml) that was supplemented with EDTA-free protease inhibitor (Roche) and 1 mg ml^−1 lysozyme and lysed by sonication. The cleared lysates were incubated with 400 μl of Protino Glutathione Agarose 4B (Macherey-Nagel) for 1 h. The beads were washed three times with lysis buffer, and the proteins were eluted after 10 min of incubation with lysis buffer containing 25 mM L-glutathione. The protein complexes were stored at −20 °C or used in competition assays.
The purified recombinant complexes were mixed with excess amounts of the indicated purified competitor proteins (Fig. 5c) or with bacterial lysates expressing the competitor proteins (Figs 5a and 6) and incubated for 30 min at 4 °C. After incubation, 20 μl of immobilized γ-Aminophenyl-m^7GTP or Strep-Tactin Sepharose (IBA), were added to the samples and incubated for another 40 min at 4 °C. The beads were washed three times with lysis buffer and eluted with lysis buffer containing 2.5 mM desthiobiotin (Strep-Tactin Sepharose) or with 20 μl of SDS–PAGE loading buffer (Aminophenyl-m^7GTP beads). The proteins were analyzed by 10–15% SDS–PAGE followed by staining with Coomassie blue staining. […]

[3] = eIF4E II-AA (69–248), 20 °C, pH 7.0
[4] = Fig. 4, 2 μM complex, 20 min at 4 °C, n=2

Row | Substance | affinity for eIF4E II-AA mutant relative to WT (in words) [1] | TΔS [1, 3] [kcal/mol] | ΔG [1, 3] [kcal/mol] | displacement of eIF4G from eIF4E WT–eIF4G complex (in words) [2, 4] | Kd ([1]; VP-ITC, 20 °C, 20 mM Na-phosphate (pH 7.0), 150 mM NaCl, GB1-fused C+NC peptides (10 μM) or eIF4G (20 μM) into eIF4E II-AA 5 μM, one-site model, each experiment repeated twice) [nM] | ΔH [1, 3] [kcal/mol] | molar excess at which eIF4G was effectively displaced ([2]; Fig. 4, 2 μM complex, GB1-fused C+NC competitor, 20 min at 4 °C, n=2) | competition with eIF4G for eIF4E WT (in words) [2]
1 | 4E-T C+NC: 4E-T residues 9–44, eIF4E-binding region short, C-terminal GB1 | not significantly affected | 2.16 | -10.80 | displaced eIF4G from the complex and associated with eIF4E | – | – | – | –
2 | CUP C+NC: CUP residues 325–376, eIF4E-binding region short, C-terminal GB1 (KSYTRSRLMDIRNGMFNALMHRSKESFVMPRIATCDDIELEGRLRRMNIWRT-GB1; UniProt Q9VMA3 325-376, looked up, fragment) | reduced by one and two orders of magnitude, respectively | 8.79 | -9.84 | displaced eIF4G from the complex and associated with eIF4E | 50 | -18.6 ± 0.7 | two | efficiently displaced preassembled eIF4G
3 | Thor C+NC: Thor residues 50–83, eIF4E-binding region short, C-terminal GB1 (TKLIYERAFMKNLRGSPLSQTPPSNVPSCLLRGT-GB1; UniProt Q9XZ56 50-83, looked up, fragment) | reduced by one and two orders of magnitude, respectively | -0.91 | -8.46 | displaced eIF4G from the complex and associated with eIF4E | – | – | – | –
4 | Thor C: Thor residues 50–63, canonical motif | – | – | – | – | – | – | – | abolished competition
